T1: GIPR G144S (Homo sapiens, UniProt P48546, G144S)
T1 construct: host or cells: HEK293
T1 sequence (P48546 22-466 G144S): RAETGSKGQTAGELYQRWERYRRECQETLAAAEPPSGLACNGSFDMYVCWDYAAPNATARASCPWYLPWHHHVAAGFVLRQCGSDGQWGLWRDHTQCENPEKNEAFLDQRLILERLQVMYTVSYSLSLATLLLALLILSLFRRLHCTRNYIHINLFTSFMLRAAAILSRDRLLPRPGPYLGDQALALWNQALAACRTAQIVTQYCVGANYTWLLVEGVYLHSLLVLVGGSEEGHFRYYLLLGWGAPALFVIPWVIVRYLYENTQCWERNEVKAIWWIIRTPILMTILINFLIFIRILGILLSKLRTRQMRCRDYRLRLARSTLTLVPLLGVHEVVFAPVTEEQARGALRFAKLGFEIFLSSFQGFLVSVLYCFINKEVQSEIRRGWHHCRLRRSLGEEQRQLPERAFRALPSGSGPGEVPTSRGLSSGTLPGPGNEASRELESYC

T2: GIPR A150T (Homo sapiens, UniProt P48546, A150T)
T2 construct: host or cells: HEK293
T2 sequence (P48546 22-466 A150T): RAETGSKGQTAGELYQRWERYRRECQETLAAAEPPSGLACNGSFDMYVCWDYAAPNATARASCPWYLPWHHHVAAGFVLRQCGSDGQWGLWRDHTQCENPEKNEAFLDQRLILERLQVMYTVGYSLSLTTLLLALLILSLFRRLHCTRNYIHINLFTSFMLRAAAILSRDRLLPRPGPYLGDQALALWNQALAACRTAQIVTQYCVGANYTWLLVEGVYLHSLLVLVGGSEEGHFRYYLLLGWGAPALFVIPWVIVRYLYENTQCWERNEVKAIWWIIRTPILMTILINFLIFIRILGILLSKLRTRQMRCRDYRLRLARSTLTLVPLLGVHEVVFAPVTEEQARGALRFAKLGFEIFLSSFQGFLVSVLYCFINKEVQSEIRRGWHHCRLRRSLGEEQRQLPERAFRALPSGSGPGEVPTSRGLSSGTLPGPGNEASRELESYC

T3: GIPR H166Y (Homo sapiens, UniProt P48546, H166Y)
T3 construct: host or cells: HEK293
T3 sequence (P48546 22-466 H166Y): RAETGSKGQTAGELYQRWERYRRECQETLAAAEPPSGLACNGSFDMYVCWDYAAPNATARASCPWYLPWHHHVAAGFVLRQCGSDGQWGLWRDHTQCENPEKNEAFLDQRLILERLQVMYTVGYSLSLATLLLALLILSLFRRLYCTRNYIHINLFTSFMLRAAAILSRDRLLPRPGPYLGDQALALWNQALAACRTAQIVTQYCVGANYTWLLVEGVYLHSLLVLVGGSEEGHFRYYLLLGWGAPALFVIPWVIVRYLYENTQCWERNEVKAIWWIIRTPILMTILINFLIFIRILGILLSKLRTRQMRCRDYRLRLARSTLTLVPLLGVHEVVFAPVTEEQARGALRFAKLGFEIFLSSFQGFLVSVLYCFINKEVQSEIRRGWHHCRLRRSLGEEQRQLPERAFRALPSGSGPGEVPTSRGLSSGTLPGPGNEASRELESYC

T4: GIPR R164W (Homo sapiens, UniProt P48546, R164W)
T4 construct: host or cells: HEK293
T4 sequence (P48546 22-466 R164W): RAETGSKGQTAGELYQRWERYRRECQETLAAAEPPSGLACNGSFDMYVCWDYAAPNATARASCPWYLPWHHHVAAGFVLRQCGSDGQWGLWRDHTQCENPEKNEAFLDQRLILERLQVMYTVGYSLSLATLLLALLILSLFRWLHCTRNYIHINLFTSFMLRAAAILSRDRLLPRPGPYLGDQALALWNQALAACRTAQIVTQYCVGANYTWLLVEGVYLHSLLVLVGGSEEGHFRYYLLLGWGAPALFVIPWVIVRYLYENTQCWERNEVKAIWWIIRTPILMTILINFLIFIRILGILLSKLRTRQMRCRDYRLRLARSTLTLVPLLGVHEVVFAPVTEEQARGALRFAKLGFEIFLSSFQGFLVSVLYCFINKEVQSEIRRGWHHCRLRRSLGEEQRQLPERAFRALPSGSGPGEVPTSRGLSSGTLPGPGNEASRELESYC

T5: GIPR R164Q (Homo sapiens, UniProt P48546, R164Q)
T5 construct: host or cells: HEK293
T5 sequence (P48546 22-466 R164Q): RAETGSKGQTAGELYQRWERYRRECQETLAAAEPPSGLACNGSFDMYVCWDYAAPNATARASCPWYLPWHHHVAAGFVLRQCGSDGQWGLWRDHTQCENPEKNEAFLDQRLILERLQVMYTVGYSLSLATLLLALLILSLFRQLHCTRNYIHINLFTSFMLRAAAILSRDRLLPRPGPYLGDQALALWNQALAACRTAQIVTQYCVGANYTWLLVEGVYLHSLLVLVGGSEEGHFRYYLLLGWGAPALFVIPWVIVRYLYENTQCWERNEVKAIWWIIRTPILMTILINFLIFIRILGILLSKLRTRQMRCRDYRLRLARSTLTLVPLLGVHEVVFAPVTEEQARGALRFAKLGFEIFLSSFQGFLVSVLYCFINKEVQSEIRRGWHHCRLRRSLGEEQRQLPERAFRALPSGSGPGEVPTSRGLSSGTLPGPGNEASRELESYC


Columns and labels:
GIPR G144S = molecular target: T1, GIPR G144S; assay: cAMP accumulation; format: cell-based
Description: (§1) HEK293 (CRL-1573, American Type Culture Collection) and β-arrestin 1/2 knockout cells, generated from HEK293A[48], were used for cAMP measurement, homologues competition binding and β-arrestin 2 recruitment. […] Both cell lines were cultured at 5% CO2 at 37 °C in Roswell Park Memorial Institute GlutaMAX-I supplemented with 10% fetal bovine serum, 180 units ml^−1 penicillin, and 45 g ml^−1 streptomycin. For the cAMP and binding experiments, cells were transfected with the calcium phosphate precipitation method[49].
(§2) cAMP production was measured with the DiscoverX Hithunter cAMP assay according to the manufacturer’s protocol (DiscoverX). […] On the day of the assay, the cells were washed twice with HEPES-buffered saline (HBS) and incubated with HBS and 1 mM 3-isobutyl-1-methylxanthine for 30 min at 37 °C. […] After the incubation, the assay medium was removed from the plate and the cells were washed with 30 µl PBS and treated with 40 µl enzyme donor–lysis buffer–chemiluminescent reagents and 10 µl cAMP antibodies for 60 min before 40 µl enzyme acceptor solution added. After a 3-h incubation on a shaking table in the dark, the cAMP accumulation was measured based on luminescence with a Perkin Elmer EnVision 2104 Multilabel Microplate Reader. […]

GIPR variants (groups) [1] = assay: cAMP accumulation; format: cell-based, human; conditions: for In vitro groups (cAMP): cAMP part of the in vitro group; for percentage_camp: cAMP production compared with WT; for Beta, cAMP: in vitro cAMP production per GIPR variant
GIPR variants (groups) [2] = assay: β-arrestin 2 recruitment (BRET); conditions: for In vitro groups (β-arrestin): arr part of the in vitro group; for Beta, Barr: in vitro β-arrestin recruitment per GIPR variant;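 on all read-outs here: BRET readout of β-arrestin 2 recruitment in transiently transfected HEK293 cells expressing WT GIPR or a GIPR variant plus GPCR kinase 2, Rluc8 donor and citrine acceptor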
GIPR A150T = molecular target: T2, GIPR A150T; assay: cAMP accumulation; format: cell-based
Description: as §1, §2

GIPR H166Y = molecular target: T3, GIPR H166Y; assay: cAMP accumulation; format: cell-based
Description: as §1, §2

GIPR R164W = molecular target: T4, GIPR R164W; assay: cAMP accumulation; format: cell-based
Description: as §1, §2

GIPR R164Q = molecular target: T5, GIPR R164Q; assay: cAMP accumulation; format: cell-based
Description: as §1, §2

Molecule	Efficacy at 100pmol (cAMP) (GIPR G144S)	In vitro groups (cAMP) (GIPR variants (groups) [1])	percentage_camp (GIPR variants (groups) [1])	Beta, cAMP (GIPR variants (groups) [1])	In vitro groups (β-arrestin) (GIPR variants (groups) [2])	Beta, Barr (GIPR variants (groups) [2])	Efficacy at 100pmol (cAMP) (GIPR A150T)	Efficacy at 100pmol (cAMP) (GIPR H166Y)	Efficacy at 100pmol (cAMP) (GIPR R164W)	Efficacy at 100pmol (cAMP) (GIPR R164Q)
G144S (protein) RAETGSKGQTAGELYQRWERYRRECQETLAAAEPPSGLACNGSFDMYVCWDYAAPNATARASCPWYLPWHHHVAAGFVLRQCGSDGQWGLWRDHTQCENPEKNEAFLDQRLILERLQVMYTVSYSLSLATLLLALLILSLFRRLHCTRNYIHINLFTSFMLRAAAILSRDRLLPRPGPYLGDQALALWNQALAACRTAQIVTQYCVGANYTWLLVEGVYLHSLLVLVGGSEEGHFRYYLLLGWGAPALFVIPWVIVRYLYENTQCWERNEVKAIWWIIRTPILMTILINFLIFIRILGILLSKLRTRQMRCRDYRLRLARSTLTLVPLLGVHEVVFAPVTEEQARGALRFAKLGFEIFLSSFQGFLVSVLYCFINKEVQSEIRRGWHHCRLRRSLGEEQRQLPERAFRALPSGSGPGEVPTSRGLSSGTLPGPGNEASRELESYC	0.204	LoF_camp	<50% cAMP	0.204	LoF_arr	0	–	–	–	–
A150T (protein) RAETGSKGQTAGELYQRWERYRRECQETLAAAEPPSGLACNGSFDMYVCWDYAAPNATARASCPWYLPWHHHVAAGFVLRQCGSDGQWGLWRDHTQCENPEKNEAFLDQRLILERLQVMYTVGYSLSLTTLLLALLILSLFRRLHCTRNYIHINLFTSFMLRAAAILSRDRLLPRPGPYLGDQALALWNQALAACRTAQIVTQYCVGANYTWLLVEGVYLHSLLVLVGGSEEGHFRYYLLLGWGAPALFVIPWVIVRYLYENTQCWERNEVKAIWWIIRTPILMTILINFLIFIRILGILLSKLRTRQMRCRDYRLRLARSTLTLVPLLGVHEVVFAPVTEEQARGALRFAKLGFEIFLSSFQGFLVSVLYCFINKEVQSEIRRGWHHCRLRRSLGEEQRQLPERAFRALPSGSGPGEVPTSRGLSSGTLPGPGNEASRELESYC	–	LoF_camp	<50% cAMP	0.1631	WT-like_arr	0.8173	0.1631	–	–	–
H166Y (protein) RAETGSKGQTAGELYQRWERYRRECQETLAAAEPPSGLACNGSFDMYVCWDYAAPNATARASCPWYLPWHHHVAAGFVLRQCGSDGQWGLWRDHTQCENPEKNEAFLDQRLILERLQVMYTVGYSLSLATLLLALLILSLFRRLYCTRNYIHINLFTSFMLRAAAILSRDRLLPRPGPYLGDQALALWNQALAACRTAQIVTQYCVGANYTWLLVEGVYLHSLLVLVGGSEEGHFRYYLLLGWGAPALFVIPWVIVRYLYENTQCWERNEVKAIWWIIRTPILMTILINFLIFIRILGILLSKLRTRQMRCRDYRLRLARSTLTLVPLLGVHEVVFAPVTEEQARGALRFAKLGFEIFLSSFQGFLVSVLYCFINKEVQSEIRRGWHHCRLRRSLGEEQRQLPERAFRALPSGSGPGEVPTSRGLSSGTLPGPGNEASRELESYC	–	WT-like_camp	>50% cAMP	0.9566	LoF_arr	0.3616	–	0.9566	–	–
R164W (protein) RAETGSKGQTAGELYQRWERYRRECQETLAAAEPPSGLACNGSFDMYVCWDYAAPNATARASCPWYLPWHHHVAAGFVLRQCGSDGQWGLWRDHTQCENPEKNEAFLDQRLILERLQVMYTVGYSLSLATLLLALLILSLFRWLHCTRNYIHINLFTSFMLRAAAILSRDRLLPRPGPYLGDQALALWNQALAACRTAQIVTQYCVGANYTWLLVEGVYLHSLLVLVGGSEEGHFRYYLLLGWGAPALFVIPWVIVRYLYENTQCWERNEVKAIWWIIRTPILMTILINFLIFIRILGILLSKLRTRQMRCRDYRLRLARSTLTLVPLLGVHEVVFAPVTEEQARGALRFAKLGFEIFLSSFQGFLVSVLYCFINKEVQSEIRRGWHHCRLRRSLGEEQRQLPERAFRALPSGSGPGEVPTSRGLSSGTLPGPGNEASRELESYC	–	LoF_camp	<50% cAMP	0.003189	LoF_arr	0	–	–	0.003189	–
R164Q (protein) RAETGSKGQTAGELYQRWERYRRECQETLAAAEPPSGLACNGSFDMYVCWDYAAPNATARASCPWYLPWHHHVAAGFVLRQCGSDGQWGLWRDHTQCENPEKNEAFLDQRLILERLQVMYTVGYSLSLATLLLALLILSLFRQLHCTRNYIHINLFTSFMLRAAAILSRDRLLPRPGPYLGDQALALWNQALAACRTAQIVTQYCVGANYTWLLVEGVYLHSLLVLVGGSEEGHFRYYLLLGWGAPALFVIPWVIVRYLYENTQCWERNEVKAIWWIIRTPILMTILINFLIFIRILGILLSKLRTRQMRCRDYRLRLARSTLTLVPLLGVHEVVFAPVTEEQARGALRFAKLGFEIFLSSFQGFLVSVLYCFINKEVQSEIRRGWHHCRLRRSLGEEQRQLPERAFRALPSGSGPGEVPTSRGLSSGTLPGPGNEASRELESYC	–	WT-like_camp	>50% cAMP	1.15	LoF_arr	0.3053	–	–	–	1.15

— article PMC11272584 (Nature Metabolism, 2024)
